Reference: US5981720A, “Human salivary proteins and fragments thereof having alpha-glucosidase inhibitory activity” (priority 1997, dated 1999)
Entries after “also recorded” stand apart in the source; their conditions may differ. Where two headings read alike, the source gives them in different places.

B1: CON-1: basic salivary proline-rich glycoprotein which binds concanavalin A, 124 amino acids, large form (protein)
chain: SPPGKPQGPPPQGGNQPQGPPPPPGKPQGPPPQGGNKPQGPPPPGKPQGPPPQGDNKSQSARSPPGKPQGPPPQGGNQPQGPPPPPGKPQGPPPQGGNKSQGPPPPGKPQGPPPQGGSKSRSSR
modifications: glycoprotein; glycosylation occurs at one N-linked site (acetylglucosamine on asparagine of glycine-glycine-asparagine-lysine)
B2: alpha-amylase: salivary protein tested for effect on alpha-glucosidase (protein, UniProt P0DUB6 16-511, looked up)
Alpha-amylase 1A: QYSSNTQQGRTSIVHLFEWRWVDIALECERYLAPKGFGGVQVSPPNENVAIHNPFRPWWERYQPVSYKLCTRSGNEDEFRNMVTRCNNVGVRIYVDAVINHMCGNAVSAGTSSTCGSYFNPGSRDFPAVPYSGWDFNDGKCKTGSGDIENYNDATQVRDCRLSGLLDLALGKDYVRSKIAEYMNHLIDIGVAGFRIDASKHMWPGDIKAILDKLHNLNSNWFPEGSKPFIYQEVIDLGGEPIKSSDYFGNGRVTEFKYGAKLGTVIRKWNGEKMSYLKNWGEGWGFMPSDRALVFVDNHDNQRGHGAGGASILTFWDARLYKMAVGFMLAHPYGFTRVMSSYRWPRYFENGKDVNDWVGPPNDNGVTKEVTINPDTTCGNDWVCEHRWRQIRNMVNFRNVVDGQPFTNWYDNGSNQVAFGRGNRGFIVFNNDDWTFSLTLQTGLPAGTYCDVISGDKINGNCTGIKIYVSDDGKAHFSISNSAEDPFIAIHAESKL
B3: CON-2: small form analog of CON-1, salivary glycoprotein of 82 amino acids (protein)
chain: SPPGKPQGPPPQGGNQPQGPPPPPGKPQGPPPQGGNKPQGPPPPGKPQGPPPQGGNKSQGPPPPGKPQGPPPQGGSKSRSSR

Assays:
[1] = biological target: yeast alpha-glucosidase (Saccharomyces cerevisiae, UniProt P53341); assay type: biochemical; conditions: for inhibitory effect on alpha-glucosidase activity (in words): 0.02 units of yeast alpha-glucosidase; for Specific Inhibitory Activity: decrease of 1 umole of glucose production from maltose per microgram of salivary protein per hour, stages of CON-1 purification; for change of inhibitory activity after removal of acetylglucosamine (in words): incubation with N-acetylglucosaminidase
Procedure: The enzyme of alpha-glucosidase activity is according to the procedure as described by Sigma Chemical Company, St. Louis, Mo. Routinely, the enzyme reaction mixture contains 10 mM maltose and 50 ul of purified alpha-glucosidase or 0.02 units of yeast alpha-glucosidase in a final volume of 60 ul of 25 mM sodium acetate buffer, pH 5.6. The reaction mixture is incubated at 37° C. for 60 minutes, and the production of glucose is determined by the glucose oxidase reagent (Worthington Statzyme Glucose 500) in accordance with recommendation of Worthington Biochemical Corporation.

[2] = test system: HIV-1; conditions: CEMx174 cells
Procedure: To test whether the alpha-glucosidase inhibitor activity of CON-1 could also intervene in HIV adsorption to target cells, thereby reducing infectivity and production of viral proteins, the following experiment was carried out: CEMx174 cells, as described by Hoxie, et al., J. Virol., 62: 2557 (1988), were infected at a concentration of 500,000 cells per ml for 2 hours at 37 degrees Centigrade with cell-free HIV-1, isolated as described in Alizon, et al., Nature, 312: 757 (1984), by adding virus at a concentration of 300 ng of HIV p24 protein per ml. Components of complete medium: RPMI 1640 with 10% fetal bovin serum, 2 mM L-glutamine, penicillin at 100 units/ml, and streptomycin at 100 ug/ml) with phytohemagglutin (PHA, 1 ug/ml; Sigma). After the 2 hour incubation, the virus inoculum was washed off and the cells were resuspended in complete culture medium containing various amounts of CON-1 protein. The cells were incubated in 96-well microtiter plates (5×10^4 cells in 200 ul per well), and cell-free supernatants were collected 72 hours after infection.
The amount of HIV p24 in the cell-free supernatant was determined with a commercially available ELISA kit (Coulter) according to the manufacture's instructions. The HCEM cell line described in Pauza, et al. J. Virol., 63:3700 (1989) was used to assess the effect of CON-1 on HIV production from chronically infected cells. HCEM cells were pretreated with CON-1 at 10 ug/ml for 4 hours, washed twice with phosphate-buffered saline and then incubated at 10^6 cells per ml in complete medium in the presence of CON-1 at 10 ug/ml, respectively. After 48 hours, cell-free supernatants were collected to determine HIV p24 levels by ELISA.

[3] = test system: invertase; assay: Enzyme assay of invertase in the presence of CON-1; assay type: biochemical; conditions: same concentration as for alpha-glucosidase
Procedure: The enzyme reaction was incubated with 5 mM sucrose as substrate in 50 mM acetate buffer pH 5.0 at 37° C. for 60 minutes. The production of glucose was determined as described in "Enzyme Assay of Alpha-Glucosidase Activity".

[4] = test system: alpha-amylase; assay: Enzyme assay of alpha-amylase activity in the presence of CON-1; assay type: biochemical; conditions: same concentration as for alpha-glucosidase
Procedure: (§1) The enzyme reactions of alpha- and beta-amylases contained 2 mg of phytoglycogen as substrate in 0.05 M sodium acetate buffer, pH 5.4; and were incubated at 37° C. for 60 minutes. The liberation of reducing sugar from phytoglycogen was measured by the reduction of 3,5-nitrosalicyclic acid as described by Bernfeld, Methods Enzymol. 1:149-158 (1955).

[5] = test system: debranching enzyme; assay: Enzyme assay of debranching enzyme in the presence of CON-1; assay type: biochemical; conditions: same concentration as for alpha-glucosidase
Procedure: Debranching enzyme activity was determined according to the method of Lee, et al. Arch. Biochem. Biophys., 143:315-374 (1971). The reaction mixture contains 2 mg of pullulan, 100 mM sodium citrate buffer (pH 7.0), and incubated at 37° C. for 60 minutes. The reducing sugar produced from phytoglycogen was determined according to the method of Bernfeld, Methods Enzymol. 1:149-158 (1955).

[6] = assay type: physicochemical
Excerpt: The crude preparation (either cell lysate, whole saliva, or parotid exudate) is collected at subzero temperatures, preferably into a dry-ice chilled container. The preparation is then heated to a temperature between 75 and 100 degrees Centigrade, for a period sufficient to cause denaturation of proteases. At lower temperatures, the time of exposure to heat may be increased up to one hour. Best results are obtained by heating an aliquot of the crude preparation in boiling water from 2 to about 10 minutes. Precipitated protein is then removed by centrifugation followed by an alcohol precipitation. The alcohol may be isopropyl, methyl, or ethyl, ethyl being preferred because of its nontoxic or USP properties. Alcohol precipitation is generally carried out overnight at 4 to 15 degrees.
In conventional purification strategies, the protein was either degraded too rapidly to remove contaminating proteases, or the protein is inherently unstable in the presence of alterative materials. Among those techniques attempted in purifying CON-1 and CON-2 are the following: Sephadex gel filtration, DEAE cation and anion exchange chromatography, preparative gradient SDS-gel electrophoresis, solvent precipitation in an initial step (methanol, propanol, isopropanol, butanol acetone, and phenol), concanavalin A affinity column chromatography, and blue dye gel affinity column chromatography. […]

[7] = test system: beta-amylase; assay: Enzyme assay of beta-amylase activity in the presence of CON-1; assay type: biochemical; conditions: same concentration as for alpha-glucosidase
Procedure: as §1

[8] = test system: glucoamylase; conditions: same concentration as for alpha-glucosidase
[9] = test system: CEM×179 cells; assay type: cell-based
Procedure: T cell proliferation assay: CEM×179 cells (2×10^5/well in 200 ul of complete medium) were cultured during 6 days at 37° C. in flat-bottomed microtiter wells, and T cell proliferation was evaluated following a 6 hr pulse of (3H)-thymidine (0.5 uCi/well) (Amersham, Bucks, England). Cultures were harvested (Skatron Instruments, Lier, Norway) and the radioactivity was measured using a beta-counter (Packard Gamma 5500).

[10] = supernatant 72 hours after infection (FIG. 9)

Sequence of yeast alpha-glucosidase (P53341 whole entry): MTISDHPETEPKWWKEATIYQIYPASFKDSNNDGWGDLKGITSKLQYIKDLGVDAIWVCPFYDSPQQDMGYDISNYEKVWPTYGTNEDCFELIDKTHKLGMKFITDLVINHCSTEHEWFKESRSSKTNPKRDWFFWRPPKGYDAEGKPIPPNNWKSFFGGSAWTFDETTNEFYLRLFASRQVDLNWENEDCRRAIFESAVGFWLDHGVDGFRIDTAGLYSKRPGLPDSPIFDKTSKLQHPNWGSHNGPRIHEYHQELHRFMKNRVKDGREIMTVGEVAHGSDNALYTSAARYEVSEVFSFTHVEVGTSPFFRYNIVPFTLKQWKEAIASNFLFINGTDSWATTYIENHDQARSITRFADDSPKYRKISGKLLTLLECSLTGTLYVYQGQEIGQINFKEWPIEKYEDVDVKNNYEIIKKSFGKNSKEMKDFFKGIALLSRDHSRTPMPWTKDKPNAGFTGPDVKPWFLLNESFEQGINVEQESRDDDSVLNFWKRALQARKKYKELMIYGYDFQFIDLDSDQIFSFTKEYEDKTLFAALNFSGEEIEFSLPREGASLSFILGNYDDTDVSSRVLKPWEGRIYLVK

| Molecule | inhibitory effect on alpha-glucosidase activity (in words) [1] | inhibitory activity lost after deglycosylation ([1]; CON-1 treated with PNGase versus native glycosylated CON-1 (FIG. 8)) | Specific Inhibitory Activity [1] | Specific Inhibitory Activity ([1]; listed as SDS Gel Electrophoresis Slice) | change of inhibitory activity after removal of acetylglucosamine (in words) [1] | concentration at which significant inhibition of p24 production first occurs [2, 10] | concentrations showing marked inhibition of p24 production [2, 10] | effect on HIV p24 production (in words) ([2]; up to 20 ug/ml) | inhibitory effect on invertase (in words) [3] | inhibitory effect on alpha-amylase (in words) [4] | inhibitory effect on debranching enzyme (in words) [5] | stability to denaturing conditions (in words) [6] | inhibitory effect on beta-amylase (in words) [7] | inhibitory effect on glucoamylase (in words) [8] | amount of protein showing no toxic effect on the cell line [9] |
| --- | --- | --- | --- | --- | --- | --- | --- | --- | --- | --- | --- | --- | --- | --- | --- |
| B1 | inhibition of essentially all enzyme activity; also recorded: completely inhibited the enzyme; also recorded: nearly complete | about 50% | about 2810 | 2810.0 | marked reduction in inhibitory activity | 2.5 µg/mL | above 1.25 ug/ml | profound reductions in signal markers of viral replication | None of the other enzymes is significantly affected; also recorded: essentially no inhibitory effect | None of the other enzymes is significantly affected; also recorded: essentially no inhibitory effect | None of the other enzymes is significantly affected; also recorded: essentially no inhibitory effect | extreme stability to denaturing conditions | None of the other enzymes is significantly affected; also recorded: essentially no inhibitory effect | essentially no inhibitory effect | up to 50 ug/assay |
| B2 | significantly enhance enzyme activity | – | – | – | – | – | – | – | – | – | – | – | – | – | – |
| B3 | nearly complete | – | – | – | marked reduction in inhibitory activity | – | – | – | essentially no inhibitory effect | essentially no inhibitory effect | essentially no inhibitory effect | extreme stability to denaturing conditions | essentially no inhibitory effect | essentially no inhibitory effect | – |
